# Reference: patent US20190352376A1
# “And” between values parts separate entries of the source, which are not always exact repeats. Identical values can stand only once. Like-named read-outs stand apart in the source and are kept apart here.
# Assays:
# [1] = target: T1, peptide-conjugate (Example 1; lactosyl-Ser-…-Cys coupled to KLH) (influenza virus)
# [2] = target: peptide of Example 1 (influenza virus); experiment: SPR, mAb captured on anti-mouse Fc, peptide injected; average
# [3] = target: peptide of Example 1 (influenza virus); experiment: SPR, mAb captured on anti-mouse Fc, peptide injected
# [4] = target: Non-related protein; experiment: dot blot, 4M urea; negative control, dot 16
# [5] = target: hemagglutinin of H9N2 A/Hong Kong/1073/1999 (influenza virus H9N2 A/Hong Kong/1073/1999); experiment: dot blot, 4M urea; rHA (Prot. Sc.), dot 10
# [6] = target: hemagglutinin of H7N7 A/Netherlands/219/2003 (influenza virus H7N7 A/Netherlands/219/2003); experiment: dot blot, 4M urea; rHA (Prot. Sc.), dot 9
# [7] = target: hemagglutinin of H5N1 A/Indonesia/05/2005 (influenza virus H5N1 A/Indonesia/05/2005)
# [8] = target: hemagglutinin of H5N1 A/Indonesia/05/2005 (influenza virus H5N1 A/Indonesia/05/2005); experiment: dot blot, 4M urea; rHA (Prot. Sc.), dot 7
# [9] = target: hemagglutinin of H5N1 A/Vietnam/1203/2004 (influenza virus H5N1 A/Vietnam/1203/2004); experiment: dot blot, 4M urea; rHA (Prot. Sc.), dot 8
# [10] = target: T1, peptide-conjugate (Example 1; …); remark: listed apart in the source
Binder,Kd [2] [nM],signal intensity (arbitrary fluorescent units) [4],signal intensity (arbitrary fluorescent units) [5],signal intensity (arbitrary fluorescent units) [6],signal intensity (arbitrary fluorescent units) [7],signal intensity (arbitrary fluorescent units) [8],signal intensity (arbitrary fluorescent units) [9],also measured
"F211-9D1 (antibody, V domains shown) VL: DIVMSQSPSSLAVSVGEKVTMSCKSSQSLLNSRNQKNHLAWYQQKPGQSPKLLIYWASTRESGVPDRFSGDGSGTDFTLTISSVKAEDLAVYYCQQYYTYRTFGGGTKLEIK VH: DVQLQESGPGLVKPSQSLSLTCSVTGYSITSDYYWNWIRQFPGNKLEWMAYIGYDGSKNYNPSLKNRISITRDTSKNQFFLKLNSVTTDDTATYYCTRDRANWDDYFDYWGQGTTLTVSS",–,–,–,–,–,–,–,EC50 (read off the curve) [1]: 0.03 mg/L
"F211-11H12 (antibody, V domains shown) VL: DIVMSQSPSSLAVSVGEKVTMSCKSSQSLLNSRNQKNHLAWYQQKPGQSPKLLIYWASTRESGVPDRFTGDGSGTDFTLTISSVKAEDLAVYYCQQYYTYRTFGGGTKLEIK VH: DVQLQESGPGLVKPSQSLSLTCSVTGYSITSDYYWNWIRQFPGNKLEWMAYIGYDGTKNYNPSLKNRISITRDTSKNQFFLKLNSVTTDDTATYYCTRDRANWDDYFDYWGQGTTLTVSS",0.465,–,–,–,–,–,–,Kd [3]: 0.465 nM
"F211-9D1 (antibody, V domains shown) VH: DVQLQESGPGLVKPSQSLSLTCSVTGYSITSDYYWNWIRQFPGNKLEWMAYIGYDGSKNYNPSLKNRISITRDTSKNQFFLKLNSVTTDDTATYYCTRDRANWDDYFDYWGQGTTLTVSS VL: DIVMSQSPSSLAVSVGEKVTMSCKSSQSLLNSRNQKNHLAWYQQKPGQSPKLLIYWASTRESGVPDRFSGDGSGTDFTLTISSVKAEDLAVYYCQQYYTYRTFGGGTKLEIK",–,47,3760,425,46700,10100,46800,–
"F211-11H12 (antibody, V domains shown) VH: DVQLQESGPGLVKPSQSLSLTCSVTGYSITSDYYWNWIRQFPGNKLEWMAYIGYDGTKNYNPSLKNRISITRDTSKNQFFLKLNSVTTDDTATYYCTRDRANWDDYFDYWGQGTTLTVSS VL: DIVMSQSPSSLAVSVGEKVTMSCKSSQSLLNSRNQKNHLAWYQQKPGQSPKLLIYWASTRESGVPDRFTGDGSGTDFTLTISSVKAEDLAVYYCQQYYTYRTFGGGTKLEIK",–,38,3570,488,43100,22200,45900,–
"CHO-11H12 (antibody, V domains shown) VL: DIVMSQSPSSLAVSVGEKVTMSCKSSQSLLNSRNQKNHLAWYQQKPGQSPKLLIYWASTRESGVPDRFTGDGSGTDFTLTISSVKAEDLAVYYCQQYYTYRTFGGGTKLEIK VH: DVQLQESGPGLVKPSQSLSLTCSVTGYSITSDYYWNWIRQFPGNKLEWMAYIGYDGTKNYNPSLKNRISITRDTSKNQFFLKLNSVTTDDTATYYCTRDRANWDDYFDYWGQGTTLTVSS",0.639,–,–,–,–,–,–,–
"F211-10A9 (antibody, V domains shown) VL: DIVMTQSPSSLAMSVGQKVTMSCKSSQSLLNSDTQKNFLAWYQQKPGQSPKILVYFASTKESGVPDRFIGSGSGTDFTLTITSVQAEDLADYFCQQYYSIPLTFGAGTKLELK VH: QIQLQQSGPELVKPGAPVKISCKASGYTFTDYYIHWVNQRPGQGLEWIGYIYPGNGHTVYNQKFKVRATLTADNPSSTAYLQLNSLTSEDSGVYFCAYDLFNYWGQGTLVTVSA",0.338,–,–,–,–,–,–,EC50 (read off the curve) [10]: 0.05 mg/L and 0.03 mg/L; Kd [3]: 0.338 nM
"CHO-10A9 (antibody, V domains shown) VL: DIVMTQSPSSLAMSVGQKVTMSCKSSQSLLNSDTQKNFLAWYQQKPGQSPKILVYFASTKESGVPDRFIGSGSGTDFTLTITSVQAEDLADYFCQQYYSIPLTFGAGTKLELK VH: QIQLQQSGPELVKPGAPVKISCKASGYTFTDYYIHWVNQRPGQGLEWIGYIYPGNGHTVYNQKFKVRATLTADNPSSTAYLQLNSLTSEDSGVYFCAYDLFNYWGQGTLVTVSA",0.365,–,–,–,–,–,–,–
"F211-10A9 (antibody, V domains shown) VH: QIQLQQSGPELVKPGAPVKISCKASGYTFTDYYIHWVNQRPGQGLEWIGYIYPGNGHTVYNQKFKVRATLTADNPSSTAYLQLNSLTSEDSGVYFCAYDLFNYWGQGTLVTVSA VL: DIVMTQSPSSLAMSVGQKVTMSCKSSQSLLNSDTQKNFLAWYQQKPGQSPKILVYFASTKESGVPDRFIGSGSGTDFTLTITSVQAEDLADYFCQQYYSIPLTFGAGTKLELK",–,34,2970,42000,28600,165,8260,–
